The values below are quoted from earlier work in paper PMC9686918.

By Kd is commonly meant the free concentration of one partner at which half of the binding sites on the other are occupied at equilibrium, for simple one-to-one binding.

For the data set, the target named is myeloperoxidase (Homo sapiens) (UniProt P05164).
Sequence of myeloperoxidase (Homo sapiens) (P05164 165-273): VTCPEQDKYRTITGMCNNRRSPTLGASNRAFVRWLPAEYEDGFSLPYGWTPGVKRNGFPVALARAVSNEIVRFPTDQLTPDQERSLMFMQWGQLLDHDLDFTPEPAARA

Take “human serum albumin (from UniProt P02768)”: the Kd was 20 µM.
